Measured values published in the RNAGym collection of RNA variant scans (doi:10.7554/elife.80360).

B1: CPEB3 Ribozyme (parent)
chain: GGGGGCCACAGCAGAAGCGUUCACGUCGCGGCCCCUGUCAGAUUCUGGUGAAUCUGCGAAUUCUGCUGU

Variants of: B1
Test: self-cleavage, relative activity (ratio to wild type); higher = more cleavage; co-transcriptional

Compared with A15U C39A, A15U C39G is higher in self-cleavage: 0.309 for the first, 0.622 for the second.

Compared with A15G A16U, A15G A16G is higher in self-cleavage: 0.691 for the first, 0.93 for the second.

Compared with A15C A51C, A15U G56A is lower in self-cleavage: 0.752 for the first, 0.648 for the second.

Compared with A15U G56C, A15C C66U is higher in self-cleavage: 0.402 for the first, 0.725 for the second.

First: A15C C66A
Second: A15G G19C
The self-cleavage of the first is higher: 0.357 for the first, 0.15 for the second.

First: A15G G19U
Second: A15G G19A
The self-cleavage of the first is higher: 0.439 for the first, 0.216 for the second.

Compared with A15C C22U, G14U U53C is higher in self-cleavage: 0.2 for the first, 0.33 for the second.

First: G14U U53G
Second: A15U U21C
The self-cleavage of the first is lower: 0.439 for the first, 0.592 for the second.

Compared with A15U U21G, A15U C27A is lower in self-cleavage: 0.157 for the first, 0.0897 for the second.

Going from A15U C27G to A15G U53C, the self-cleavage rises from 0.168 to 0.859.

Compared with A15G U53G, A15U G58U is higher in self-cleavage: 0.958 for the first, 0.963 for the second.

Compared with A15U G58A, A15U G58C is higher in self-cleavage: 0.754 for the first, 0.821 for the second.

First: A15C C27G
Second: A15C C27U
The self-cleavage of the first is higher: 0.123 for the first, 0.119 for the second.

Going from A15C U46A to A15C U46C, the self-cleavage falls from 0.93 to 0.88.

Compared with A15C C32A, A15C C32G is lower in self-cleavage: 0.302 for the first, 0.153 for the second.

First: A15U C66U
Second: A15U C66G
The self-cleavage of the first is higher: 0.643 for the first, 0.516 for the second.

Going from A15U C66A to A15U U38G, the self-cleavage falls from 0.324 to 0.178.

Going from A15U U38A to A15C G37C, the self-cleavage falls from 0.548 to 0.105.

Compared with A15C G37U, A15C G37A is higher in self-cleavage: 0.168 for the first, 0.196 for the second.

First: A15C G25A
Second: A15G U36A
The self-cleavage of the first is lower: 0.127 for the first, 0.203 for the second.

First: A15G U36C
Second: A15G U36G
The self-cleavage of the first is higher: 0.966 for the first, 0.152 for the second.

First: A15U G47A
Second: A15U G47C
The self-cleavage of the first is lower: 0.95 for the first, 0.989 for the second.

First: A15U G47U
Second: A15G U20G
The self-cleavage of the first is higher: 0.919 for the first, 0.161 for the second.

Going from A15G U20A to A15C U38C, the self-cleavage rises from 0.092 to 0.571.

Compared with A15C U38A, A15C U38G is lower in self-cleavage: 0.595 for the first, 0.292 for the second.

Going from A15C C57U to A15G G48U, the self-cleavage rises from 0.423 to 0.989.

Compared with A15G G48A, A15G G48C is higher in self-cleavage: 0.966 for the first, 1 for the second.

First: A15G G31A
Second: A15G G31C
The self-cleavage of the first is higher: 0.874 for the first, 0.204 for the second.

Compared with A15U A42C, A15U A42U is higher in self-cleavage: 0.594 for the first, 0.613 for the second.

Compared with A15C C33G, A15C C33A is higher in self-cleavage: 0.259 for the first, 0.32 for the second.

First: A15U G48A
Second: A15C
The self-cleavage of the first is higher: 0.925 for the first, 0.923 for the second.

Compared with A15U, A15G is higher in self-cleavage: 0.928 for the first, 1 for the second.

Going from A15U U43G to A15U U43A, the self-cleavage rises from 0.429 to 0.479.

Compared with A15U U43C, A15U A52U is higher in self-cleavage: 0.731 for the first, 0.804 for the second.

First: A15U A52C
Second: A15U C24G
The self-cleavage of the first is higher: 0.889 for the first, 0.214 for the second.

Compared with A15U C24U, A15G C22U is higher in self-cleavage: 0.28 for the first, 0.287 for the second.

First: A15C G28A
Second: A15C G28C
The self-cleavage of the first is lower: 0.138 for the first, 0.146 for the second.

Compared with A15C G28U, A15C U49C is higher in self-cleavage: 0.191 for the first, 0.842 for the second.

Compared with A15C U49G, A15G U61G is lower in self-cleavage: 0.858 for the first, 0.822 for the second.

Going from A15G U61C to A15G U61A, the self-cleavage rises from 0.892 to 0.982.

First: A15G A59U
Second: A15G A59G
The self-cleavage of the first is lower: 0.785 for the first, 0.994 for the second.

Compared with A15G G50A, A15G U21G is lower in self-cleavage: 0.973 for the first, 0.578 for the second.

Going from A15G U21A to A15G A23U, the self-cleavage rises from 0.956 to 1.04.

Going from A15G A23G to A15G C32U, the self-cleavage rises from 0.959 to 1.02.

Going from A15G C32A to A15G C27A, the self-cleavage falls from 0.816 to 0.645.

Compared with A15G C27U, A15G C27G is higher in self-cleavage: 0.204 for the first, 0.316 for the second.

Going from A15U G25U to A15G C33G, the self-cleavage rises from 0.148 to 0.534.

First: A15G C33U
Second: A15G C33A
The self-cleavage of the first is higher: 0.999 for the first, 0.798 for the second.

Compared with A15U G28C, A15U G28U is lower in self-cleavage: 0.206 for the first, 0.167 for the second.

Going from A15C G58C to A15C G58A, the self-cleavage falls from 0.84 to 0.809.

Going from A15C U53A to A15G C18G, the self-cleavage falls from 0.651 to 0.198.

First: A15G C18A
Second: A15G C18U
The self-cleavage of the first is lower: 0.192 for the first, 0.792 for the second.

First: A15U A23C
Second: A15U A23U
The self-cleavage of the first is lower: 0.723 for the first, 0.95 for the second.

Compared with A15U A23G, A15G U55G is higher in self-cleavage: 0.658 for the first, 0.85 for the second.

Going from A15G U55A to A15G U55C, the self-cleavage falls from 0.892 to 0.869.

Going from A15G U62A to A15G U62C, the self-cleavage rises from 0.906 to 0.956.

Going from A15G G65C to A15G G65U, the self-cleavage falls from 0.825 to 0.784.

Going from A15U G17A to A15U G17U, the self-cleavage rises from 0.159 to 0.221.

Going from G14U U62C to G14U U62G, the self-cleavage rises from 0.364 to 0.513.

Compared with A15G C57A, A15G C57G is lower in self-cleavage: 0.45 for the first, 0.259 for the second.

Compared with A15C A40C, A15C A40G is higher in self-cleavage: 0.137 for the first, 0.626 for the second.

Going from A15C G41C to A15C G41A, the self-cleavage rises from 0.215 to 0.289.

Compared with A15U C35U, A15U G65C is lower in self-cleavage: 0.776 for the first, 0.433 for the second.

Going from A15G C24A to A15U C18U, the self-cleavage falls from 0.691 to 0.338.

First: A15U C18G
Second: A15U C18A
The self-cleavage of the first is higher: 0.186 for the first, 0.122 for the second.

First: A15G U26C
Second: A15G U26G
The self-cleavage of the first is higher: 1.03 for the first, 0.953 for the second.

Compared with A15G U26A, A15U A16C is lower in self-cleavage: 0.905 for the first, 0.135 for the second.

Compared with A15U A16U, A15G C35A is lower in self-cleavage: 0.798 for the first, 0.273 for the second.

Going from A15G C35G to A15G C35U, the self-cleavage rises from 0.457 to 0.96.

First: A15G G56C
Second: A15G G56U
The self-cleavage of the first is lower: 0.785 for the first, 0.985 for the second.

First: A15G G56A
Second: A15C U20G
The self-cleavage of the first is higher: 0.944 for the first, 0.139 for the second.

Going from A15C U20C to A15C U20A, the self-cleavage falls from 0.284 to 0.125.

First: A15C C39U
Second: A15C C39G
The self-cleavage of the first is lower: 0.535 for the first, 0.596 for the second.

Compared with A15G U67G, A15G U67C is lower in self-cleavage: 0.996 for the first, 0.943 for the second.

Compared with A15G U67A, A15C G17U is lower in self-cleavage: 0.971 for the first, 0.25 for the second.

Compared with A15C G17A, A15G U49C is higher in self-cleavage: 0.136 for the first, 0.968 for the second.

First: A15G U49G
Second: A15G U49A
The self-cleavage of the first is lower: 0.95 for the first, 0.986 for the second.

Compared with A15G C63G, A15G C63A is higher in self-cleavage: 0.674 for the first, 0.799 for the second.

Going from A15G C63U to A15U C32A, the self-cleavage falls from 0.947 to 0.285.

First: A15U C32G
Second: A15G G58C
The self-cleavage of the first is lower: 0.247 for the first, 1.01 for the second.

First: A15G G58U
Second: A15G G25C
The self-cleavage of the first is higher: 0.978 for the first, 0.133 for the second.

First: A15G G25U
Second: A15G G25A
The self-cleavage of the first is higher: 0.148 for the first, 0.127 for the second.

Going from A15C U67G to A15C G31C, the self-cleavage falls from 0.934 to 0.27.

In the case of A15C G31A, the self-cleavage is reported as 0.456.
